From publication PMC10231827

Legend:
[1] = biological target: S2P.OmiBA1-1208.H8 (SARS CoV-2 (Omicron BA.1)); assay: SEC
[2] = biological target: hACE2-Fc (human) (UniProt Q9BYF1); assay: BLI; ACE2-Fc (10 ug/ml in kinetic buffer) captured on anti-human IgG Fc capture (AHC) biosensors, S2P glycoproteins as analyte; 30°C; association 300 s, dissociation 300 s; 1:1 binding model

| Substance | percent dissociated to a lower-order form after freeze-thaw [1] [%] | Kd [2] [nM] | Req [2] [nm] | koff [2] [s⁻¹] | kon [2] [M⁻¹ s⁻¹] |
| --- | --- | --- | --- | --- | --- |
| S2P.OmiBA1-1208.H8 (domain or fragment) | 15 | – | – | – | – |
| S2P.OmiBA1-FHA (domain or fragment) | – | 0.641 | 0.35 | 0.00027 | 420000 |
